The values that follow come from article PMC7949049 (The Journal of Biological Chemistry, 2020).

Where two headings read alike, the source gives them in different places. Positions of bridges follow the written chain, without caps; N, C: chain ends. Non-standard residues stand in square brackets, D forms with d. Residues, ends and D or L forms follow the SMILES beside them. No end group written: not given here. *: point of attachment. 5FAM = O=C1OC2(c3ccc(O)cc3Oc3cc(O)ccc32)c2ccc(C(=O)*)cc21; S5 = C=CCCC[C@](C)(N)C(=O)O

Experiment [1] addresses SP1 stapled peptide (RLIP76) 423-446 (Homo sapiens) (UniProt Q15311). The conditions noted are these: cited from earlier work.
A further experiment concerns the target T1, Cdc42 (Homo sapiens, UniProt P60953, Q61L).
T1 construct: Cdc42 (pGEX-2T, 1–184, Q61L); GST (cleaved yes); made in house
Briefly: Direct-binding fluorescence polarization, Cdc42. The conditions noted are these: 20 nM FAM-labelled non-solubilized peptide; n ≥ 2; ± standard error from curve fitting; read-out: Kd Cdc42, FP (Table S1). The procedure: (§1) FP experiments were performed on a BMG Labtech Pherastar fluorimeter at 298 K with excitation at 485 nm and emission at 520 nm as described previously ([34]), using 20 nM FAM-labeled peptide. Plates were read after 30 min incubation at room temperature. Data were fitted to a single-site binding model using nonlinear regression analysis in GraphPad prism 8.4 to obtain Kd values and their standard errors.
In general terms: Polarisation of emitted light reports the rotation of a fluorescent probe.

Another experiment deals with T2, RhoA·GMPPNP (Homo sapiens, UniProt P61586, F25N/Q63L).
T2 construct: RhoA (pGEX-2T, 1–186, F25N/Q63L); GST (cleaved yes); made in house
T2 sequence (P61586 1-186 F25N/Q63L): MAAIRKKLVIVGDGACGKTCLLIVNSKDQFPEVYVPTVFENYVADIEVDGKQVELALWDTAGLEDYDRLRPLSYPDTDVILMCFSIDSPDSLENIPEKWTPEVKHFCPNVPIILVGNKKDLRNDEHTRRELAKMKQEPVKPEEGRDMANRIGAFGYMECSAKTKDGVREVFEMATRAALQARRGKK
The experiment can be described thus: Direct-binding fluorescence polarization, RhoA. Conditions: 20 nM FAM-labelled non-solubilized peptide; n ≥ 2; ± standard error from curve fitting; read-out: Kd RhoA, FP (Table S1). The protocol: as §1

Experiment [2] has as its target SP1 stapled peptide (RLIP76) 423-446 (Homo sapiens) (UniProt Q15311). Conditions: cited from earlier work. The source holds these as a separate data set.
For experiment [3] the target is unchanged. Conditions: cited from earlier work. This is another data set of the same source.
The target of the next experiment is R-Ras (Homo sapiens) (UniProt P10301). Conditions: cited from earlier work.
R-Ras (Homo sapiens), sequence (P10301 1-215): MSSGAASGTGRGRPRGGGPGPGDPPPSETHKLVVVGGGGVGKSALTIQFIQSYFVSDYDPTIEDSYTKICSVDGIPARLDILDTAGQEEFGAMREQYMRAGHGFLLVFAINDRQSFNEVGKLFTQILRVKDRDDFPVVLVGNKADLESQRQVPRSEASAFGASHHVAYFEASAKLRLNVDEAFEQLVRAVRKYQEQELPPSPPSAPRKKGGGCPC
In the next experiment the target is RalB (Homo sapiens) (UniProt P11234). The conditions noted are these: cited from earlier work.
In the next experiment the target is RalA (Homo sapiens) (UniProt P11233). Conditions: cited from earlier work.
The target in experiment [4] is T3, RalA (residues 1–184, Q72L) (UniProt P11233 1-184, Q72L).
T3 construct: RalA small GTPase, residues 1-184, constitutively active Q72L; Loaded with [3H]GTP for SPA, with GMPPNP or GDP for fluorescence polarisation; also called RalA·GTP; [3H]-GTP RalA; source: expressed from pMAT10 as His6-MBP fusion, cleaved from its tag as described previously
T3 sequence (looked up): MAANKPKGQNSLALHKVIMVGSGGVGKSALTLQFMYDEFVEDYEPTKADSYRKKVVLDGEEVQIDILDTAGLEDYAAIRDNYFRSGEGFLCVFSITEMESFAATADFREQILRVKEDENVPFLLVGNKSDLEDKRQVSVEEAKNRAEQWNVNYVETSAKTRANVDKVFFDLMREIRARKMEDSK
Briefly: fluorescence polarisation; 20 nM FAM-labeled peptide, varying concentrations of GMPPNP-bound small GTPases, 298 K, single-site model. Conditions: both partners purified.

The target of experiment [5] is T4, RalB (residues 1–185, Q72L) (UniProt P11234 1-185, Q72L).
T4 construct: Loaded with [3H]GTP for SPA, with GMPPNP for ITC, FP and crystallisation; also called RalB·GTP; source: expressed from pMAT10 as His6-MBP fusion, cleaved from its tag as described previously
T4 sequence (looked up): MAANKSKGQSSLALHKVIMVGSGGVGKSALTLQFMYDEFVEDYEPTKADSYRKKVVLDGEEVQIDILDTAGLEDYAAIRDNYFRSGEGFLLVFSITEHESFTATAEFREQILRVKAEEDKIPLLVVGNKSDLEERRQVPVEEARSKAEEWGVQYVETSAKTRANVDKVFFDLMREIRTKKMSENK
Described as above. Conditions: both partners purified.

For experiment [6], the target named is RalA (residues 1–184, Q72L) (UniProt P11233). The experiment can be described thus: scintillation proximity assay (competition); His-tagged wild-type RLIP76 RBD immobilised on SPA beads, fixed [3H]GTP·RalA (100 nM) or [3H]GTP·RalB (250 nM), competitor RBD or peptide titrated; pure competition model, apparent Kd (Ki).
Experiment [7] has as its target T4, RalB (residues 1–185, Q72L). The experiment is described as above. Conditions: both partners purified.
The target of experiment [8] is T3, RalA (residues 1–184, Q72L). Briefly: scintillation proximity assay (competition); GST-tagged Sec5 RBD immobilised on SPA beads, fixed [3H]-GTP RalA, peptides or RLIP76 RBD titrated; pure competition model, apparent Kd (Ki). Conditions: both partners purified.
Experiment [9] shares this target. The experiment can be described thus: scintillation proximity assay (competition); His-tagged wild-type RLIP76 RBD immobilised on SPA beads, fixed [3H]GTP·RalA (100 nM) or [3H]GTP·RalB (250 nM), competitor RBD or peptide titrated; pure competition model, apparent Kd (Ki). Conditions: both partners purified.

SP1 stapled peptide (RLIP76) 423-446 (Homo sapiens), sequence (Q15311 423-446): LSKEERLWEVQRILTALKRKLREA
T1 sequence (P60953 1-184 Q61L, species assumed): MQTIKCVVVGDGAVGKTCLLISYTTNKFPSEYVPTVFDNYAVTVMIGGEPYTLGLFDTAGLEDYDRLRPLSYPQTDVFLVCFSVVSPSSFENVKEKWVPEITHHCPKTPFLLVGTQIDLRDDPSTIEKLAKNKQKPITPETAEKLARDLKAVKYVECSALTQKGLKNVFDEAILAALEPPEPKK

As for RalA (from UniProt P11233), the Kd in experiment [1] was 14 µM.
Turning to `CC[C@H](C)[C@H](NC(=O)[C@H](CCCNC(=N)N)NC(=O)[C@H](CC(C)C)NC(=O)[C@@H](NC(=O)[C@H](CCC(=O)O)NC(=O)[C@H](Cc1c[nH]c2ccccc12)NC(=O)[C@H](CC(C)C)NC(=O)[C@]1(C)CCCC=CCCC[C@](C)(NC(=O)[C@H](CC(C)C)NC(=O)c2ccc3c(c2)C(=O)OC32c3ccc(O)cc3Oc3cc(O)ccc32)C(=O)N[C@@H](CCCCN)C(=O)N[C@@H](CCC(=O)O)C(=O)N[C@@H](Cc2c[nH]cn2)C(=O)N1)C(C)C)C(=O)N[C@@H](CC(C)C)C(=O)N[C@H](C(=O)N[C@@H](C)C(=O)N[C@@H](CC(C)C)C(=O)N[C@@H](CCCNC(=N)N)C(=O)N[C@@H](CCCNC(=N)N)C(=O)N[C@@H](CCCCN)C(=O)N[C@@H](CC(C)C)C(=O)N[C@@H](CCCNC(=N)N)C(=O)N[C@@H](CCC(=O)O)C(=O)N[C@@H](C)C(N)=O)[C@@H](C)O` [HLR-SP1] (5FAM-L[S5]KEH[S5]LWEVLRILTALRRKLREA-NH2; staple 2-6), the Kd on Cdc42 was determined as 6.11 ± 1.67 µM; at RhoA·GMPPNP it was 0.0125 ± 0.0022 µM.
In the case of RalB (from UniProt P11234), the Kd in experiment [2] is 5 µM.
For the molecule R-Ras (from UniProt P10301), the Kd in [3] was 30 µM.
Turning to “SP1 stapled peptide 423-446 (from UniProt Q15311)”, the Kd with R-Ras (Homo sapiens) is 30 µM; in the experiment with RalB (Homo sapiens), 5 µM; with RalA (Homo sapiens) it was 14 µM.

B1: FAM-labeled HLR-sol stapled peptide (peptide)
chain: L[S5]KEH[S5]LWEELRIKTAERRKKREA-NH2
modifications: staple 2-6; not fully specified (N-terminus); also: 5-carboxyfluorescein (FAM) label, site not given here
Consider B1, for which the values for the Kd in [4] and in experiment [5] were 16.6 µM and 21.1 µM, respectively.

B2: RLIP76 RBD WDASQSR mutant (domain or fragment)
chain: ETQAGIKEEIRRQEFLLNSLHRDLQGGIKDLSKWDRAWEVSQILSALRRKLREA
notes: RLIP76 residues 423-446 (helix α2); Selected by CIS display; source: E. coli, recombinant; cleaved from its tag
Regarding B2, the Kd in experiment [6] came out at 3.02 µM; in experiment [7], 6.97 µM.

B3: L-sol stapled peptide (peptide)
chain: L[S5]KEE[S5]LWEELRIKTAEKRKKREA-NH2
modifications: staple 2-6; N-terminus assumed
SMILES: CC[C@H](C)[C@H](NC(=O)[C@H](CCCNC(=N)N)NC(=O)[C@H](CC(C)C)NC(=O)[C@H](CCC(=O)O)NC(=O)[C@H](CCC(=O)O)NC(=O)[C@H](Cc1c[nH]c2ccccc12)NC(=O)[C@H](CC(C)C)NC(=O)[C@]1(C)CCCC=CCCC[C@](C)(NC(=O)[C@@H](N)CC(C)C)C(=O)N[C@@H](CCCCN)C(=O)N[C@@H](CCC(=O)O)C(=O)N[C@@H](CCC(=O)O)C(=O)N1)C(=O)N[C@@H](CCCCN)C(=O)N[C@H](C(=O)N[C@@H](C)C(=O)N[C@@H](CCC(=O)O)C(=O)N[C@@H](CCCCN)C(=O)N[C@@H](CCCNC(=N)N)C(=O)N[C@@H](CCCCN)C(=O)N[C@@H](CCCCN)C(=O)N[C@@H](CCCNC(=N)N)C(=O)N[C@@H](CCC(=O)O)C(=O)N[C@@H](C)C(N)=O)[C@@H](C)O
In the case of B3, the Kd in experiment [8] was 1.81 µM; in experiment [9] it was 3.09 µM.

B4: HLR-sol stapled peptide (peptide)
chain: L[S5]KEH[S5]LWEELRIKTAERRKKREA-NH2
modifications: staple 2-6; N-terminus assumed
SMILES: CC[C@H](C)[C@H](NC(=O)[C@H](CCCNC(=N)N)NC(=O)[C@H](CC(C)C)NC(=O)[C@H](CCC(=O)O)NC(=O)[C@H](CCC(=O)O)NC(=O)[C@H](Cc1c[nH]c2ccccc12)NC(=O)[C@H](CC(C)C)NC(=O)[C@]1(C)CCCC=CCCC[C@](C)(NC(=O)[C@@H](N)CC(C)C)C(=O)N[C@@H](CCCCN)C(=O)N[C@@H](CCC(=O)O)C(=O)N[C@@H](Cc2c[nH]cn2)C(=O)N1)C(=O)N[C@@H](CCCCN)C(=O)N[C@H](C(=O)N[C@@H](C)C(=O)N[C@@H](CCC(=O)O)C(=O)N[C@@H](CCCNC(=N)N)C(=O)N[C@@H](CCCNC(=N)N)C(=O)N[C@@H](CCCCN)C(=O)N[C@@H](CCCCN)C(=O)N[C@@H](CCCNC(=N)N)C(=O)N[C@@H](CCC(=O)O)C(=O)N[C@@H](C)C(N)=O)[C@@H](C)O
In the case of B4, the Kd in [8] came out at 1.74 µM; in experiment [9], 2.97 µM.

B5: FAM-labeled L-sol stapled peptide (peptide)
chain: L[S5]KEE[S5]LWEELRIKTAEKRKKREA-NH2
modifications: staple 2-6; not fully specified (N-terminus); also: 5-carboxyfluorescein (FAM) label, site not given here
Turning to B5, the Kd in experiment [4] came out at 19.8 µM; in [5], 24.4 µM.
